For this experiment, the target named is thrombin (manufactured by Enzyme Research Laboratories). Briefly: cell-based or functional assay.

Regarding “ATIII DG44 peak (1) fraction (recombinant human antithrombin III produced by pKAN-ATIII AFDG44, CHO/DG44 cell) (from UniProt P01008 33-464)”, the Secondary rate constant (+hep), thrombin inhibition in the presence of heparin was determined as 8.7e+06 M⁻¹ s⁻¹ and the Secondary rate constant (-hep), thrombin inhibition in the absence of heparin came to 7700 M⁻¹ s⁻¹.
As for “ATIII MS705 peak (3) fraction (recombinant human antithrombin III produced by pKAN-ATIII AFMS705, FUT8 gene-double-knockout CHO/DG44 cell) (from UniProt P01008 33-464)”, the Secondary rate constant (+hep), thrombin inhibition in the presence of heparin was 2.6e+07 M⁻¹ s⁻¹ and the Secondary rate constant (-hep), thrombin inhibition in the absence of heparin is 8800 M⁻¹ s⁻¹.
Taken in the same sequence, the figures for “Neuart (human plasma-derived antithrombin III preparation, manufactured by Mitsubishi Pharma Corporation) (from UniProt P01008 33-464)” were 2.3e+07 M⁻¹ s⁻¹ and 8200 M⁻¹ s⁻¹.
For the substance “ATIII DG44 peak (2) fraction (recombinant human antithrombin III produced by pKAN-ATIII AFDG44, CHO/DG44 cell) (from UniProt P01008 33-464)”, the Secondary rate constant (+hep), thrombin inhibition in the presence of heparin worked out at 2e+07 M⁻¹ s⁻¹ and the Secondary rate constant (-hep), thrombin inhibition in the absence of heparin was 8600 M⁻¹ s⁻¹.
As to “ATIII MS705 peak (2) fraction (recombinant human antithrombin III produced by pKAN-ATIII AFMS705, FUT8 gene-double-knockout CHO/DG44 cell) (from UniProt P01008 33-464)”, the Secondary rate constant (+hep), thrombin inhibition in the presence of heparin stood at 2.5e+07 M⁻¹ s⁻¹.

(Values after patent US20060024793A1.)
